Results published in PMC8887474.

Target: YTHDC1 YTH domain (Homo sapiens, UniProt Q96MU7 345-509)
Assay: ITC

In the case of CCAUCG (ssRNA, m6A at position 3) [CC(m6A)UCG hexamer], the Kd is reported as 1270 ± 240 nM.

GGCGCAUCGGCGCC (structured_RNA, m6A at position 6) [(m6A)UCG Xist tetraloop hairpin] gave a Kd of 3030 ± 530 nM.

For GGCGUAUCGGCGCC (structured_RNA, m6A at position 6) [UG-mismatch (m6A)UCG Xist hairpin], the Kd was 2050 ± 100 nM.
